The text below walks through data of article PMC3334378.

In this test the target is fibronectin (UniProt P02751).
Chain of UniProt P02751 (P02751 32-2477): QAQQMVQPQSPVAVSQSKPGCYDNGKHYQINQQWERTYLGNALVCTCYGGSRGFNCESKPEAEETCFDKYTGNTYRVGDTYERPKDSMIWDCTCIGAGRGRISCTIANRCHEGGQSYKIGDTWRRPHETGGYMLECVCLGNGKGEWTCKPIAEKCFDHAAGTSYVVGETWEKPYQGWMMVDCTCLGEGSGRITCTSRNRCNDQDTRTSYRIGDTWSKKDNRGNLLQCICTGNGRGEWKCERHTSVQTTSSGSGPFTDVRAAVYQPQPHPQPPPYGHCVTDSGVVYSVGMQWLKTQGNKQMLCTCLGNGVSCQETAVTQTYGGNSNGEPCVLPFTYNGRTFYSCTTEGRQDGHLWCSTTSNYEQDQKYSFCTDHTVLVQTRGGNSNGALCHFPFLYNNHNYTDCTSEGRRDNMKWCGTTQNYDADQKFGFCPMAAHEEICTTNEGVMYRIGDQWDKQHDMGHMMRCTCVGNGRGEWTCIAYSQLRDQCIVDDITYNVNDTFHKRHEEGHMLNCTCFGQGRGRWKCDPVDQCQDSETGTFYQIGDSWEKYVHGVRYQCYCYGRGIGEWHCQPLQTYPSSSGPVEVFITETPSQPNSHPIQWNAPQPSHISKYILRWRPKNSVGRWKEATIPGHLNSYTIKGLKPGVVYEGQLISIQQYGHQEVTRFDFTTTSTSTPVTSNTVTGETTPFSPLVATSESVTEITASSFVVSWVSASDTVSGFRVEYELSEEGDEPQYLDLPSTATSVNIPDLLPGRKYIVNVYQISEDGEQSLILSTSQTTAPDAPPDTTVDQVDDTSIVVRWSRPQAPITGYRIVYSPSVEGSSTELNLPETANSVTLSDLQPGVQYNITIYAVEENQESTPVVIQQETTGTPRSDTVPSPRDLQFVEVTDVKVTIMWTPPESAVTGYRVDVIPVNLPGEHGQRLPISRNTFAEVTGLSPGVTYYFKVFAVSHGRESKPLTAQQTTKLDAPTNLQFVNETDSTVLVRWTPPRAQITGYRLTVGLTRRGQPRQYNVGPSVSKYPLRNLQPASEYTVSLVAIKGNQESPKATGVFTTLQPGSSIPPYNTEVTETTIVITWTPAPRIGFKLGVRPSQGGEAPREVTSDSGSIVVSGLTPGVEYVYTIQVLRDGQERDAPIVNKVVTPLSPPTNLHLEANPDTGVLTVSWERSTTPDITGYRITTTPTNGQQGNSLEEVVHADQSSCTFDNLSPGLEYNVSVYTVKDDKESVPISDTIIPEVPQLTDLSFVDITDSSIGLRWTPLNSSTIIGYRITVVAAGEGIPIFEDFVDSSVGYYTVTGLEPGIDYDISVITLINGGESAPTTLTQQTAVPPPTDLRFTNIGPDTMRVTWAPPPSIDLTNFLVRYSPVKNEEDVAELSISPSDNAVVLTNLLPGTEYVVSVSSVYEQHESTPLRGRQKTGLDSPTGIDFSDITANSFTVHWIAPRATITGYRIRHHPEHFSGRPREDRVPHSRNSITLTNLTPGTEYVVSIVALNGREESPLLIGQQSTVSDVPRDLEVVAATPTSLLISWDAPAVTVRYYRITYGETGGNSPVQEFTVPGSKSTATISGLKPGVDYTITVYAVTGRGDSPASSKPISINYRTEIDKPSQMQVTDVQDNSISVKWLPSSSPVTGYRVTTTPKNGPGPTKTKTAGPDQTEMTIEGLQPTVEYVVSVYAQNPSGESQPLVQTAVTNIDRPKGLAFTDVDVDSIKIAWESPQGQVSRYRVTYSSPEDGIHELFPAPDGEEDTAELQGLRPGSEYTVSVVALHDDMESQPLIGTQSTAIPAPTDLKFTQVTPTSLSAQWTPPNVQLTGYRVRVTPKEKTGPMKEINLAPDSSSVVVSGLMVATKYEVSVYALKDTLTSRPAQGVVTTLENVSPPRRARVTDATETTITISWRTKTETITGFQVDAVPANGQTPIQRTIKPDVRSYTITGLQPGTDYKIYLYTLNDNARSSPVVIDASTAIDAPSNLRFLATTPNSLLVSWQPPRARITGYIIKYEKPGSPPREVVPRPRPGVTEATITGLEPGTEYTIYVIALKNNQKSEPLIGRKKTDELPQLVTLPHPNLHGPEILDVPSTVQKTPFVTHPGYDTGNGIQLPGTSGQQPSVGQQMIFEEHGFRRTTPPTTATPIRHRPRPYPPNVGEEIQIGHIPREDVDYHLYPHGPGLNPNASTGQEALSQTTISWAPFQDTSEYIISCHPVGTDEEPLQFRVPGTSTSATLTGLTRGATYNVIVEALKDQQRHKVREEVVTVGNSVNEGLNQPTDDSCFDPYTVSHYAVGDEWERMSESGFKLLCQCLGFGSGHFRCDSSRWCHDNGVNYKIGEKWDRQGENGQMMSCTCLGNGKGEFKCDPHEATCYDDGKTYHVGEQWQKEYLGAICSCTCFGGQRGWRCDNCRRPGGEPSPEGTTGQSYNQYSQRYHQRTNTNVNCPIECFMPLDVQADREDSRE

Chain of β1-integrin (P49134 21-799): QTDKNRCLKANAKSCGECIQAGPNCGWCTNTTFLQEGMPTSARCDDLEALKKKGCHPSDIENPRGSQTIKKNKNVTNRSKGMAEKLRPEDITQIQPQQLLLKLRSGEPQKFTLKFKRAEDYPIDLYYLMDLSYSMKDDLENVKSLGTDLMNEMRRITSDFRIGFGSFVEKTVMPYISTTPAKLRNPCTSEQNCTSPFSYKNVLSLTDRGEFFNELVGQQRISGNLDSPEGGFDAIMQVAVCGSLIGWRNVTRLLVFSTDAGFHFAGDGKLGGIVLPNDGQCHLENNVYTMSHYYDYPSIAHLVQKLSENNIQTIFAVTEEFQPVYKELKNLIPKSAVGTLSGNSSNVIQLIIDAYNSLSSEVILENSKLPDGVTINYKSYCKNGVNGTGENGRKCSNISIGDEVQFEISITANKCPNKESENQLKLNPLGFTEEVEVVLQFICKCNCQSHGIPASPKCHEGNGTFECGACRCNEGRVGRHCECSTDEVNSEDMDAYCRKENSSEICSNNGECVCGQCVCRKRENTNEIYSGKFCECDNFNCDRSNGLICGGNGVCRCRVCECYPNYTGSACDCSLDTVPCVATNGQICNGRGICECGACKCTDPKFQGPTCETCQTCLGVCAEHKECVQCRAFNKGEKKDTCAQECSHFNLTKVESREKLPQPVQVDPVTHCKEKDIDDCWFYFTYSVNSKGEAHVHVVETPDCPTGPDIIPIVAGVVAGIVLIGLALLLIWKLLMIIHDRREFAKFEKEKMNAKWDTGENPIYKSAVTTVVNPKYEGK

In turn, “β1-integrin (from UniProt P49134 21-799) (receptor)” returned an inhibition of adhesion of 3Y1 cells to fibronectin-coated plates (60 min, 37°C) by β1-integrin blocking antibody (hamster anti-rat CD29, 50 µg/mL) of 51% and an inhibition of adhesion of HR-3Y1-2 cells to fibronectin-coated plates (60 min, 37°C) by β1-integrin blocking antibody (hamster anti-rat CD29, 50 µg/mL) of 57%.
